Changes are numbered by the printed parent chain.
T1: Macaque Trop-2-His (macaque, UniProt P09758 27-274 (human entry))
T1 construct: Extracellular domain of macaque Trop-2 recombinantly linked to His; also called monkey Trop-2-His protein; monkey Trop-2
T1 chain: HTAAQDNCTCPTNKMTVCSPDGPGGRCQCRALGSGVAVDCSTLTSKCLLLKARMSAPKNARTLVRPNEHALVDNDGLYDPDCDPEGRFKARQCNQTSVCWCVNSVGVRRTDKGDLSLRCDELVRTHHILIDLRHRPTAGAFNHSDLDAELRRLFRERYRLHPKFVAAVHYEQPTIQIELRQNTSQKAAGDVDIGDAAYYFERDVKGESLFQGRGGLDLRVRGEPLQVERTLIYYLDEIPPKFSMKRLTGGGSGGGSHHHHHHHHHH

T2: human Trop-2 (on the surface of human cell lines) (human, UniProt P09758 27-323)
T2 sequence: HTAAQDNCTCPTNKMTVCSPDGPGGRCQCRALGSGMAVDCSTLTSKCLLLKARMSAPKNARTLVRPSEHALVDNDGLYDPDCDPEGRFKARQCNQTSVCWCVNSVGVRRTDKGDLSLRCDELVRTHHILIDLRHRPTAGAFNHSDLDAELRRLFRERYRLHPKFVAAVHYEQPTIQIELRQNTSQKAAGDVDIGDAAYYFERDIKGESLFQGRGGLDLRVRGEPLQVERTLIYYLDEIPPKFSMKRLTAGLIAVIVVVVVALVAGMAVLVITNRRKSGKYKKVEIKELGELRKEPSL

T3: human Trop-2-His (human, UniProt P09758 27-274, limits assumed)
T3 construct: by analogy with the macaque construct it is probably the extracellular domain with a His tag; also called Trop-2-His protein
T3 sequence: T1 chain with V36M, N67S, V204I

B1: ch-Ab35 (antibody, human IgG1, kappa, V domains shown)
VH: EVQLQQSGPDLVRPGASVKLSCKASGYTFTSSDINWVKQRPGQGLEWIGWIYPRDGSKKYNEKFKGKATLTVDTSSSTAYMEVHSLTSEDSAVYFCATRFATVVSNYGLDPWGQGTSVTVSS
VL: AIVLTQSPAIMSASPGEKVTMTCSASSSVNYIYWYQRKPGSSPRLLIYDTSNLASGVPVRFSGSGSGTSYSLTISRMEAEDAATYYCQQWNSYPLTFGAGTKLELKR
notes: Mouse VH/VL on human IgG1 and human kappa constant regions; also called chimeric antibody of Ab35
B2: hz-Ab2-1.3 (antibody, human IgG1, kappa, V domains shown)
VH: QVQLQESGPGLVKPSETLSLTCTVSGFSLTYYGIDWIRQPPGKGLEWIGVIWGSGNTKYNSALKSRVTISKDNSKSQFSLKLSSVTAADTAVYYCARFYEGFAYWGQGTLVTVSS
VL: DIQMTQSPSSLSASVGDRVTITCKASQDINSYLSWFQQKPGKAPKTLIYRANRLVEGVPSRFSGSGSGQDYTLTISSLQPEDFATYYCLQYDEFPLTFGQGTKVEIKR
notes: Humanized antibody
B3: hz-Ab2-2.4 (antibody, human IgG1, kappa, V domains shown)
VH: B2 VH with F78V, S79Y
VL: B2 VL with K24R, Y71F, F94Y
notes: Humanized antibody
B4: hz-Ab2-1.4 (antibody, human IgG1, kappa, V domains shown)
VH: B2 VH with F78V, S79Y
VL: B2 VL
notes: Humanized antibody
B5: hz-Ab21-1.1 (antibody, human IgG1, kappa, V domains shown)
VH: EVQLVESGGGLVKPGGSLRLSCAASGFTLRNYGVHWVRQAPGKGLEWVGVIWSSGTTDYAAPVKGRFTISKDNSKNTLYLQMNSLKTEDTAVYYCTRDGDYDYYTMDYWGQGTLVTVSS
VL: EIVLTQSPATLSLSPGERATLSCRASKSVSTSAYSYIHWYQQKPGQAPRLLIYLTSNLESGIPARFSGSGSGTDFTLTISSLEPEDFAVYYCQHSRELPYTFGQGTKVEIKR
notes: Humanized antibody
B6: hz-Ab21-1.2 (antibody, human IgG1, kappa, V domains shown)
VH: B5 VH with A60N, P62A, V63F, K64I, G65S
VL: B5 VL
notes: Humanized antibody
B7: ch-Ab21 (antibody, human IgG1, kappa, V domains shown)
VH: EVQLKQSGPGLVQPSQSLSITCTVSGFSLRNYGVHWVRQSPGKGLEWLGVIWSSGTTDYNAAFISRLSITKDNSKSQVFFKMNSLQVDDTAIYNCARDGDYDYYTMDYWGQGTSVTVSS
VL: AIVLTQSPASLAVSLGQRATISCRASKSVSTSAYSYIHWYQQKPGQPPKLLIYLTSNLESGVPARFSGSGSGTDFTLNIHPVEEEDAATYYCQHSRELPYTFGGGTKLEIKR
notes: Mouse VH/VL on human IgG1 and human kappa constant regions; also called chimeric antibody of Ab21

Legend:
[1] = target: T1, Macaque Trop-2-His; assay: ELISA, plate-coated macaque Trop-2-His
Procedure: (§1) After the liquid was discarded, 2% BSA (SIGMA, B2064-100G) diluted with PBS was added at 300 μL/well for blocking, and the mixture was incubated at 37° C. for 2 h. After the blocking was completed, the blocking buffer was discarded, the plate was washed 3 times with the PBST buffer (pH 7.4 PBS containing 0.1% tween-20), the antibody solution diluted in a gradient was added at 100 μL/well, and the mixture was incubated at 37° C. for 1 h. After the incubation was completed, the plate was washed 3 times with PBST, the goat anti-human IgG (H+L) (JacksonImmunoResearch, 109-035-098, 1:5000 dilution) was added at 100 μL/well, and the mixture was incubated at 37° C. for 1 h. After the plate was washed 3 times with PBST, a TMB chromogenic substrate (TIANGEN, PA107-01) was added at 100 μL/well. The mixture was incubated at room temperature for 10-15 min, and then 1 M H₂SO₄ was added at 50 μL/well to terminate the reaction. The absorbance values at 450 nm were taken using a microplate reader. The binding curves of antibodies for antigen were fitted using software, and the EC₅₀ values were calculated.

[2] = target: T2, human Trop-2 (on the surface of human …); assay: cell-based or functional assay
[3] = target: T2, human Trop-2 (on the surface of human …); assay: cell-based or functional assay; remark: listed apart in the source
[4] = target: T2, human Trop-2 (on the surface of human …); assay: flow cytometry, HCC1806 cells
Procedure: (§2) Tumor cells expressing Trop-2 were prepared into a cell suspension (0.5-1×10⁶ cells/mL) using the FACS buffer (Miltenyi Biotec, 130-091-221), and the cell suspension was added to a 96-well V-bottom plate at 100 μL/well. After centrifugation and removal of the supernatant, the test antibodies diluted with the FACS buffer to different concentrations (0.006 nM-100 nM) were each added at 50 μL/well. The mixture was incubated in the dark in a 4° C. refrigerator for 1 h. The plate was then washed 3 times with the FACS buffer by centrifugation at 300 g, and Alexa Fluor 488 goat anti-human IgG (H+L) (Bio-legend, 409304, 1:500 dilution) at working concentration was added. The mixture was incubated in the dark in a 4° C. refrigerator for 40 min. The plate was then washed 3 times with the FACS buffer by centrifugation at 300 g, the geometric mean fluorescence intensity (MFI) was measured on a Sartorius iQue3 flow cytometer, and the binding EC₅₀ values of the antibodies for tumor cells with different Trop-2 expression levels were calculated

[5] = target: T2, human Trop-2 (on the surface of human …); assay: flow cytometry, OVCAR-3 cells
Procedure: as §2

[6] = target: T3, human Trop-2-His; assay: ELISA, plate-coated human Trop-2-His
Procedure: as §1, with “with” for “with the”

[7] = target: T2, human Trop-2 (on the surface of human …); assay: flow cytometry, HCC38 cells
Procedure: as §2

[8] = target: T3, human Trop-2-His; assay: SPR (Biacore 8K), antibody captured, Trop-2-His as analyte
From the text: The affinity of antibodies for human Trop-2-His was detected in the form of antibody capturing. The antibody was affinity-captured by a CM5 (Cat. #29149603, GE) biosensor chip conjugated with an anti-human IgG antibody (from human antibody capture kit, Cat. #29234600, GE), then the antigen human Trop-2-His flowed on the surface of the chip, and a Biacore 8K instrument was used for detecting reaction signals in real time to obtain association and dissociation curves. After dissociation was completed for each assay cycle, the chip was washed clean and regenerated with a regeneration buffer, 3M MgCl₂ (from human antibody capture kit, Cat. #29234600, GE). The association and dissociation curves were collected by Biacore 8K Control Software 3.0 in real time, and the data were analyzed by Biacore Insight Evaluation Software 3.0. The data were fitted using a Langmuir 1:1 model after double subtraction (namely, in each cycle, the contrast channel signal was subtracted from the experimental channel signal, and the sample signal was subtracted from the blank signal), and the association rate constant Ka, the dissociation rate constant Kd, and the equilibrium constant KD were calculated.

Row | Binder | EC50 [1] | ADCC, PBMC killing (LDH), H322, EC50 [2] | ADCC, PBMC killing (LDH), H322, Maximum killing (%) [2] | ADCC, PBMC killing (LDH), HCC1806, EC50 [2] | ADCC, PBMC killing (LDH), HCC1806, Maximum killing (%) [2] | ADCC reporter (Jurkat-CD16a v158-NFAT-luciferase), target cell H322, EC50 [3] | ADCC reporter (Jurkat-CD16a v158-NFAT-luciferase), target cell HCC1806, EC50 [3] | EC50 [4] | EC50 [5] | EC50 [6] | EC50 [7] | Kd [8] | koff [8] | kon [8]
1 | B1 | 0.048 nM | 0.01 nM | 51.9% | 0.02 nM | 38% | 0.02 nM | 0.04 nM | 0.38 nM | 0.37 nM | 0.043 nM | 0.45 nM |  |  | 
2 | B2 | 0.068 nM | 0.02 nM | 48.1% | 0.06 nM | 37% | 0.17 nM | 0.33 nM | 1.22 nM |  | 0.081 nM | 0.65 nM | 16.5 nM | 0.0165 s⁻¹ | 1e+06 M⁻¹ s⁻¹
3 | B3 | 0.07 nM | 0.07 nM | 46.7% | 0.15 nM | 33.3% | 0.66 nM | 1.51 nM | 1.23 nM |  | 0.1 nM | 0.45 nM | 11.6 nM | 0.00483 s⁻¹ | 415000 M⁻¹ s⁻¹
4 | B4 | 0.053 nM | 0.01 nM | 48.7% | 0.02 nM | 34.8% | 0.34 nM | 0.39 nM | 1.07 nM |  | 0.068 nM | 1.2 nM | 2.32 nM | 0.00284 s⁻¹ | 1.22e+06 M⁻¹ s⁻¹
5 | B5 | 0.098 nM |  |  |  |  |  |  | 0.64 nM | 0.62 nM | 0.162 nM | 0.55 nM | 1.2 nM | 0.000514 s⁻¹ | 429000 M⁻¹ s⁻¹
6 | B6 | 0.086 nM |  |  |  |  |  |  | 1.23 nM | 0.67 nM | 0.248 nM | 0.66 nM | 0.973 nM | 0.000438 s⁻¹ | 450000 M⁻¹ s⁻¹
7 | B7 | 0.093 nM | 0.13 nM | 54% | 0.03 nM | 40.3% | 0.04 nM | 0.08 nM | 0.65 nM | 1.02 nM | 0.165 nM | 0.64 nM |  |  | 

Source: patent US20250034275A1 (CHIA TAI TIANQING PHARMACEUTICAL GROUP, published 2025)
